Values joined by “and” are separate entries in the source; they are usually repeats but may differ in a detail not shown here. Identical values can stand only once.
Experiments:
[1] = target: T1, NRP1 (UniProt O14786 22-923, limits assumed); experiment: flow cytometry on cells carrying the target, 2 ug/mL; parent antibody
T1 construct: whole, on cells; also called neuropilin 1

[2] = target: T2, IGF1R (UniProt P08069 31-1367, limits assumed); experiment: as above
T2 construct: whole, on cells; also called insulin-like growth factor receptor

[3] = target: T3, CD-20 (UniProt P11836 1-297, limits assumed); experiment: as above
T3 construct: whole, on cells
T3 sequence (looked up): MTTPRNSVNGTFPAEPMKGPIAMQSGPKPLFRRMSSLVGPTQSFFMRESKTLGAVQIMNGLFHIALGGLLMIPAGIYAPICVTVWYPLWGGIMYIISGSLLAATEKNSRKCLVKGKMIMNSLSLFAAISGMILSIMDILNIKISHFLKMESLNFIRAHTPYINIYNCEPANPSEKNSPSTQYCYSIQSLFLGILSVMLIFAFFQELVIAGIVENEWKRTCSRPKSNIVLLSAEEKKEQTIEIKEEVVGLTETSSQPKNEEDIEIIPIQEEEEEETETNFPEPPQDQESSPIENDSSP

[4] = target: T4, DLL4 ECD/His tag (R&D 1506-D4-050) (UniProt Q9NR61 27-529); experiment: direct bind ELISA, DLL4 on plate; reference antibody
T4 construct: extracellular domain; Bought antigen coated on the ELISA plate; not shown: His tag

[5] = target: T5, RON (UniProt Q04912 25-1400, limits assumed); experiment: flow cytometry on cells carrying the target, 2 ug/mL; N-terminal VD
T5 construct: whole, on cells; also called macrophage stimulating protein receptor tyrosine kinase; MSP receptor

[6] = target: T6, VEGF (VEGF 1-165 aa, R&D Systems 293-VE-010) (UniProt P15692 27-191); experiment: Direct bind ELISA, VEGF coated on plate; reference antibody printed beside DVD509
T6 construct: bought reagent; also called vascular endothelial growth factor

[7] = target: T6, VEGF (VEGF 1-165 aa, R&D Systems …); experiment: Direct bind ELISA, VEGF coated on plate; reference antibody printed beside DVD510
[8] = target: T6, VEGF (VEGF 1-165 aa, R&D Systems …); experiment: Direct bind ELISA, VEGF coated on plate; reference antibody printed beside DVD503
[9] = target: T6, VEGF (VEGF 1-165 aa, R&D Systems …); experiment: Direct bind ELISA, VEGF coated on plate; reference antibody printed beside DVD498
[10] = target: T6, VEGF (VEGF 1-165 aa, R&D Systems …); experiment: Direct bind ELISA, VEGF coated on plate; reference antibody printed beside DVD504
[11] = target: T6, VEGF (VEGF 1-165 aa, R&D Systems …); experiment: Direct bind ELISA, VEGF coated on plate; reference antibody printed beside DVD497
[12] = target: T6, VEGF (VEGF 1-165 aa, R&D Systems …); experiment: Direct bind ELISA, VEGF coated on plate; reference antibody printed beside DVD491
[13] = target: T6, VEGF (VEGF 1-165 aa, R&D Systems …); experiment: Direct bind ELISA, VEGF coated on plate; reference antibody printed beside DVD492
[14] = target: T7, DLL4 (human, UniProt Q9NR61 27-685); experiment: flow cytometry on cells carrying the target, 2 ug/mL; parent antibody
T7 construct: whole, on cells; also called human DLL4

[15] = target: T7, DLL4; experiment: flow cytometry on 293G-human DLL4 cells; reference antibody
[16] = target: T8, CD-80 (UniProt P33681 35-288, limits assumed); experiment: flow cytometry on cells carrying the target, 2 ug/mL; parent antibody
T8 construct: whole, on cells; also called B7-1
T8 sequence (looked up): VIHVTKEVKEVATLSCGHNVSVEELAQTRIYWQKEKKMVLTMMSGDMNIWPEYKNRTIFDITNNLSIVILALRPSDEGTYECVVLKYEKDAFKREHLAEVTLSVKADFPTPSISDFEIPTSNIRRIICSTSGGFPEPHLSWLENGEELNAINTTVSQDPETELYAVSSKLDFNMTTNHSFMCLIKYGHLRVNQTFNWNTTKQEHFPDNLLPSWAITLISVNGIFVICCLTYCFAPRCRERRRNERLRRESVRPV

[17] = target: T5, RON; experiment: as above
[18] = target: T9, RON (MSP Receptor ECD-His tag, R&D Systems 1947-MS-050) (UniProt Q04912 25-957, limits assumed); experiment: Direct bind ELISA on RON; reference antibody
T9 construct: extracellular domain; not shown: His tag

[19] = target: T8, CD-80; experiment: flow cytometry on cells carrying the target, 2 ug/mL; N-terminal VD
[20] = target: T8, CD-80; experiment: flow cytometry on cells carrying the target, 2 ug/mL; C-terminal VD

T6 sequence (P15692 other isoform, or with tags, fused parts or gaps limits assumed): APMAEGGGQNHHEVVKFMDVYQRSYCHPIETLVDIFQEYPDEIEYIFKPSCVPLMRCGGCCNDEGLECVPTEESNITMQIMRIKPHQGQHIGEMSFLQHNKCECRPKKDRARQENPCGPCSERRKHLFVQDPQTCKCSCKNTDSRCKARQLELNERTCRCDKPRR

B1: AB016 (antibody, human IgG1, kappa, V domains shown)
VH: EVQLVESGGGLVQPGGSLRLSCAASGFSFSSEPISWVRQAPGKGLEWVSSITGKNGYTYYADSVKGRFTISADTSKNTAYLQMNSLRAEDTAVYYCARWGKKVYGMDVWGQGTLVTVSS
VL: DIQMTQSPSSLSASVGDRVTITCRASQSISSYLAWYQQKPGKAPKLLIYGASSRASGVPSRFSGSGSGTDFTLTISSLQPEDFATYYCQQYMSVPITFGQGTKVEIKR
notes: Parent antibody
- FACS Geometric Mean [1]: 338

B2: AB011 (antibody, human IgG1, kappa, V domains shown)
VH: EVQLLESGGGLVQPGGSLRLSCTASGFTFSSYAMNWVRQAPGKGLEWVSAISGSGGTTFYADSVKGRFTISRDNSRTTLYLQMNSLRAEDTAVYYCAKDLGWSDSYYYYYGMDVWGQGTTVTVSS
VL: DIQMTQFPSSLSASVGDRVTITCRASQGIRNDLGWYQQKPGKAPKRLIYAASRLHRGVPSRFSGSGSGTEFTLTISSLQPEDFATYYCLQHNSYPCSFGQGTKLEIKR
notes: Parent antibody
- FACS Geometric Mean [2]: 1680

B3: AB001 (antibody, human IgG1, kappa, V domains shown)
VH: QVQLQQPGAELVKPGASVKMSCKASGYTFTSYNMHWVKQTPGRGLEWIGAIYPGNGDTSYNQKFKGKATLTADKSSSTAYMQLSSLTSEDSAVYYCARSTYYGGDWYFNVWGAGTTVTVSA
VL: QIVLSQSPAILSPSPGEKVTMTCRASSSVSYIHWFQQKPGSSPKPWIYATSNLASGVPVRFSGSGSGTSYSLTISRVEAEDAATYYCQQWTSNPPTFGGGTKLEIKR
notes: Parent antibody; also called anti-CD-20 parent antibody
- FACS Geometric Mean [3]: 95.8

B4: AB072 (antibody, human IgG1, kappa, V domains shown)
VH: EVQLQQSGPELVKPGASVKMSCKASGYTFTSYVINWVKQKPGQGLEWIGLINPYNDGTKYNEKFKVKATLTSDKSSSTAYMELSSLTSEDSAVYYCASYYYGSRYYFDYWGQGTTLTVSS
VL: DIQMTQSSSYLSVSLGGRVTITCKASDHINNWLAWYQQKPGNAPRLLISGATSLETGVPSRFSGSGSGKDYTLSITSLQTEDVATYYCQQYWSIPLTFGAGTKLELKR
notes: also called AB072-DLL-4
- EC50 [4]: 1.29 nM and 0.7 nM and 1.99 nM and 1.85 nM

B5: DVD033 (bispecific antibody, human IgG1, kappa)
heavy: not shown
light: DVVMTQSPLSLPVTPGEPASISCRSSQSLLHSNGFNYVDWYLQKPGQSPHLLIYFGSYRASGVPDRFSGSGSGTDFTLKISRVEAEDVGVYYCMQALQTPPWTFGQGTKVEIRRTVAAPDIQMTQSPSSVSASVGDRVTITCRASQGISSWLAWYQQKPGKAPNLLIYEASSLQSGVPSRFGGSGSGTDFTLTISSLQPEDFATYYCQQANGFPWTFGQGTKVEIKRTVAAPSVFIFPPSDEQLKSGTASVVCLLNNFYPREAKVQWKVDNALQSGNSQESVTEQDSKDSTYSLSSTLTLSKADYEKHKVYACEVTHQGLSSPVTKSFNRGEC
notes: DVD-Ig; outer AB005 (RON), inner AB012 (HGF); also called RON and HGF DVD-Ig
- FACS Geometric Mean N-terminal [5]: 6.46

B6: AB071 (antibody, human IgG1, kappa, L234A L235A, V domains shown)
VH: EVQLVESGGGLVQPGGSLRLSCAASGFTINASWIHWVRQAPGKGLEWVGAIYPYSGYTNYADSVKGRFTISADTSKNTAYLQMNSLRAEDTAVYYCARWGHSTSPWAMDYWGQGTLVTVSS
VL: DIQMTQSPSSLSASVGDRVTITCRASQVIRRSLAWYQQKPGKAPKLLIYAASNLASGVPSRFSGSGSGTDFTLTISSLQPEDFATYYCQQSNTSPLTFGQGTKVEIKR
notes: Parent anti-VEGF antibody
- EC50 [6]: 37.8 nM
- EC50 [7]: 37.8 nM
- EC50 [8]: 37.8 nM
- EC50 [9]: 45.7 nM
- EC50 [10]: 37.8 nM
- EC50 [11]: 45.7 nM
- EC50 [12]: 45.7 nM
- EC50 [13]: 45.7 nM

B7: AB015 (antibody, human IgG1, kappa)
heavy: not shown
light: DIQMTQSPSSLSASVGDRVTITCRASQDVSTAVAWYQQKPGKAPKLLIYSASFLYSGVPSRFSGSGSGTDFTLTISSLQPEDFATTYYCQQSYTGTVTFGQGTKVEIKRTVAAPSVFIFPPSDEQLKSGTASVVCLLNNFYPREAKVQWKVDNALQSGNSQESVTEQDSKDSTYSLSSTLTLSKADYEKHKVYACEVTHQGLSSPVTKSFNRGEC
notes: Parent antibody; also called AB015
- FACS Geometric Mean [14]: 308
- EC50 [15]: 0.5 nM

B8: AB007 (antibody, human IgG1, lambda, V domains shown)
VH: QVQLQESGPGLVKPSETLSLTCAVSGGSISGGYGWGWIRQPPGKGLEWIGSFYSSSGNTYYNPSLKSQVTISTDTSKNQFSLKLNSMTAADTAVYYCVRDRLFSVVGMVYNNWFDVWGPGVLVTVSS
VL: ESALTQPPSVSGAPGQKVTISCTGSTSNIGGYDLHWYQQLPGTAPKLLIYDINKRPSGISDRFSGSKSGTAASLAITGLQTEDEADYYCQSYDSSLNAQVFGGGTRLTVLG
notes: Parent antibody; also called anti-CD-80 parent antibody
- FACS Geometric Mean [16]: 25.4

B9: AB005 (antibody, human IgG1, kappa, V domains shown)
VH: EVQLVQSGGGLVKPGGSLRLSCAASGFTFSSYAMHWVRQAPGKGLEWVAVISYDGSNKYYADSVKGRFTISRDNSKNTLYLQMNSLRAEDTAVYYCARFSGWPNNYYYYGMDVWGQGTTVTVSS
VL: DVVMTQSPLSLPVTPGEPASISCRSSQSLLHSNGFNYVDWYLQKPGQSPHLLIYFGSYRASGVPDRFSGSGSGTDFTLKISRVEAEDVGVYYCMQALQTPPWTFGQGTKVEIRR
notes: Parent antibody
- FACS Geometric Mean [17]: 54.5

B10: AB005 (anti-RON (seq. 1) parent antibody) (antibody, human IgG1, V domains shown)
VH: B9 VH
VL: B9 VL
notes: also called AB005VH; AB005VL
- EC50 [18]: 0.26 nM and 0.69 nM

B11: DVD006 (bispecific antibody, human IgG1, kappa)
heavy: not shown
light: ESALTQPPSVSGAPGQKVTISCTGSTSNIGGYDLHWYQQLPGTAPKLLIYDINKRPSGISDRFSGSKSGTAASLAITGLQTEDEADYYCQSYDSSLNAQVFGGGTRLTVLGQPKAAPQIVLSQSPAILSPSPGEKVTMTCRASSSVSYIHWFQQKPGSSPKPWIYATSNLASGVPVRFSGSGSGTSYSLTISRVEAEDAATYYCQQWTSNPPTFGGGTKLEIKRTVAAPSVFIFPPSDEQLKSGTASVVCLLNNFYPREAKVQWKVDNALQSGNSQESVTEQDSKDSTYSLSSTLTLSKADYEKHKVYACEVTHQGLSSPVTKSFNRGEC
notes: DVD-Ig; outer AB007 (CD-80), inner AB001 (CD-20); also called CD-80 and CD-20 DVD-Ig
- FACS Geometric Mean N-terminal [19]: 70.7

B12: DVD005 (bispecific antibody, human IgG1, lambda)
heavy: not shown
light: QIVLSQSPAILSPSPGEKVTMTCRASSSVSYIHWFQQKPGSSPKPWIYATSNLASGVPVRFSGSGSGTSYSLTISRVEAEDAATYYCQQWTSNPPTFGGGTKLEIKRTVAAPESALTQPPSVSGAPGQKVTISCTGSTSNIGGYDLHWYQQLPGTAPKLLIYDINKRPSGISDRFSGSKSGTAASLAITGLQTEDEADYYCQSYDSSLNAQVFGGGTRLTVLGQPKAAPSVTLFPPSSEELQANKATLVCLISDFYPGAVTVAWKADSSPVKAGVETTTPSKQSNNKYAASSYLSLTPEQWKSHRSYSCQVTHEGSTVEKTVAPTECS
notes: DVD-Ig; outer AB001 (CD-20), inner AB007 (CD-80); also called CD-20 and CD-80 DVD-Ig
- FACS Geometric Mean C-terminal [20]: 6

From patent publication US20100260668A1 (published 2010)
